# Tested on: Escherichia coli TOP10
# Test: shrunken log2 fold change of peptide-encoding DNA abundance (4.5 h post-induction vs induction); higher = less antimicrobial activity (less host growth inhibition)
# Settings: time post-induction: 4.5 h; library: site-saturation at positions 5, 18, 19, 20
# 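Also: peptides expressed intracellularly from a pBAD plasmid library in pooled LB shake-flask culture, induced with 0.3% L-arabinose, DNA abundance read by NGS, three biological replicates, DESeq2 with apeglm shrinkage.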
row,Sequence,shrunken log2 fold change
1,RRIRRRPPRLPRPRPRPRHAPRP,0.746
2,RRIRSRPPRLPRPRPRPGTCPRP,0.148
3,RRIRRRPPRLPRPRPRPFQNPRP,0.0537
4,RRIRDRPPRLPRPRPRPEGVPRP,0.166
5,RRIRPRPPRLPRPRPRPIHQPRP,-0.115
6,RRIRCRPPRLPRPRPRPTNEPRP,-0.213
7,RRIRMRPPRLPRPRPRPKKMPRP,0.249
8,RRIRSRPPRLPRPRPRPATGPRP,0.156
9,RRIRERPPRLPRPRPRPNYEPRP,-0.182
10,RRIRKRPPRLPRPRPRPCGTPRP,-0.0177
11,RRIRMRPPRLPRPRPRPHGTPRP,0.148
12,RRIRDRPPRLPRPRPRPGVWPRP,0.886
13,RRIRMRPPRLPRPRPRPWRTPRP,0.324
14,RRIRYRPPRLPRPRPRPMNYPRP,-0.49
15,RRIRMRPPRLPRPRPRPCQPPRP,-0.0351
16,RRIRKRPPRLPRPRPRPNHMPRP,-0.106
17,RRIRGRPPRLPRPRPRPSNWPRP,1.12
18,RRIRKRPPRLPRPRPRPARHPRP,1.9
19,RRIRHRPPRLPRPRPRPPKDPRP,0.105
20,RRIRDRPPRLPRPRPRPAVIPRP,-0.0132
21,RRIRCRPPRLPRPRPRPVYEPRP,-0.342
22,RRIRNRPPRLPRPRPRPGVEPRP,0.604
23,RRIRIRPPRLPRPRPRPTWQPRP,0.0597
24,RRIRVRPPRLPRPRPRPPQQPRP,0.575
25,RRIRTRPPRLPRPRPRPGRMPRP,0.232

row,Sequence,shrunken log2 fold change
1,RRIRVRPPRLPRPRPRPRMIPRP,0.224
2,RRIRMRPPRLPRPRPRPFTSPRP,-0.0967
3,RRIRNRPPRLPRPRPRPIGHPRP,-0.0117
4,RRIRYRPPRLPRPRPRPESIPRP,-0.42
5,RRIRPRPPRLPRPRPRPEMIPRP,-0.0258
6,RRIRRRPPRLPRPRPRPLKHPRP,0.208
7,RRIRTRPPRLPRPRPRPQNMPRP,-0.654
8,RRIRDRPPRLPRPRPRPVTDPRP,0.0222
9,RRIRPRPPRLPRPRPRPARCPRP,0.67
10,RRIRHRPPRLPRPRPRPICCPRP,0.055
11,RRIRMRPPRLPRPRPRPLCSPRP,-0.0295
12,RRIRYRPPRLPRPRPRPLCGPRP,-0.557
13,RRIRIRPPRLPRPRPRPNMRPRP,-0.374
14,RRIRDRPPRLPRPRPRPERPPRP,0.0268
15,RRIRKRPPRLPRPRPRPWNSPRP,0.0199
16,RRIRNRPPRLPRPRPRPQCIPRP,-0.135
17,RRIRARPPRLPRPRPRPGSDPRP,0.536
18,RRIRTRPPRLPRPRPRPPEYPRP,0.0238
19,RRIRTRPPRLPRPRPRPKGIPRP,0.0275
20,RRIRARPPRLPRPRPRPNNRPRP,-0.326
21,RRIRRRPPRLPRPRPRPHNTPRP,-0.115
22,RRIRQRPPRLPRPRPRPSEVPRP,-0.022
23,RRIRARPPRLPRPRPRPNCDPRP,0.476
24,RRIRHRPPRLPRPRPRPNRFPRP,-0.00088
25,RRIRTRPPRLPRPRPRPTGTPRP,-0.0721
